Experimental data published in the Immune Epitope Database (IEDB).

Experiments:
HLA-B*07:02 [1] = assay: IEDB peptide-MHC binding, purified MHC/competitive/fluorescence; ≥ and ≤ were set here for values at or beyond the usual limits of such assays
HLA-B*40:01 = assay: IEDB peptide-MHC binding, purified MHC/competitive/fluorescence; filed as Kd, often an IC50 or EC50 that approximates it; ≥ and ≤ were set here for values at or beyond the usual limits of such assays
HLA-A*24:02 = assay: IEDB peptide-MHC binding, purified MHC/competitive/fluorescence; ≥ and ≤ were set here for values at or beyond the usual limits of such assays; details: source organism: Vaccinia virus Copenhagen
HLA-A*03:01 [2] = assay: as above
HLA-A*24:03 [3] = assay: IEDB peptide-MHC binding, purified MHC/direct/fluorescence; filed as Kd, often an IC50 or EC50 that approximates it; ≥ and ≤ were set here for values at or beyond the usual limits of such assays; details: source organism: Vibrio vulnificus CMCP6
HLA-A*23:01 = assay: as above; details: source organism: Vibrio vulnificus CMCP6
HLA-A*02:01 [4] = assay: IEDB peptide-MHC binding, purified MHC/competitive/radioactivity; ≥ and ≤ were set here for values at or beyond the usual limits of such assays
HLA-A*68:02 [5] = assay: IEDB peptide-MHC binding, purified MHC/direct/fluorescence; filed as Kd, often an IC50 or EC50 that approximates it; ≥ and ≤ were set here for values at or beyond the usual limits of such assays; details: source organism: Choclo virus
HLA-A*02:12 [6] = assay: as above; details: source organism: Choclo virus
HLA-A*03:01 [7] = assay: as above; details: source organism: Choclo virus
HLA-A*02:16 = assay: as above; details: source organism: Choclo virus
HLA-A*02:19 [8] = assay: as above; details: source organism: Choclo virus
HLA-B*15:01 = assay: IEDB peptide-MHC binding, purified MHC/competitive/fluorescence; filed as Kd, often an IC50 or EC50 that approximates it; ≥ and ≤ were set here for values at or beyond the usual limits of such assays
HLA-B*18:01 = assay: as above
HLA-B*27:03 = assay: as above
HLA-B*51:01 = assay: as above
HLA-A*26:01 [9] = assay: as above
HLA-A*02:01 [10] = assay: as above
HLA-B*58:01 [11] = assay: as above
HLA-B*39:01 = assay: as above
HLA-A*69:01 = assay: as above; details: source organism: Orthohantavirus sinnombreense
HLA-B*46:01 = assay: as above
HLA-A*26:01 [12] = assay: IEDB peptide-MHC binding, purified MHC/competitive/radioactivity; filed as Kd, often an IC50 or EC50 that approximates it; ≥ and ≤ were set here for values at or beyond the usual limits of such assays; details: source organism: Dengue virus 2 Jamaica/1409/1983
HLA-A*30:02 = assay: as above; details: source organism: Dengue virus 2 Jamaica/1409/1983
HLA-B*58:01 [13] = assay: as above
HLA-A*01:01 [14] = assay: as above; details: source organism: Dengue virus 2 Jamaica/1409/1983
HLA-B*57:01 [15] = assay: as above
HLA-A*32:01 = assay: as above
HLA-A*01:01 [16] = assay: IEDB peptide-MHC binding, purified MHC/direct/fluorescence; filed as Kd, often an IC50 or EC50 that approximates it; ≥ and ≤ were set here for values at or beyond the usual limits of such assays; details: source organism: Reston ebolavirus - Reston
HLA-C*05:01 = assay: as above
HLA-B*57:01 [17] = assay: IEDB peptide-MHC binding, purified MHC/competitive/fluorescence; filed as Kd, often an IC50 or EC50 that approximates it; ≥ and ≤ were set here for values at or beyond the usual limits of such assays; details: source organism: Reston ebolavirus - Reston (1989)
HLA-B*15:17 = assay: as above; details: source organism: Reston ebolavirus - Reston (1989)
HLA-B*07:02 [18] = assay: as above
HLA-A*24:03 [19] = assay: as above
HLA-A*31:01 = assay: IEDB peptide-MHC binding, purified MHC/competitive/radioactivity; filed as Kd, often an IC50 or EC50 that approximates it; ≥ and ≤ were set here for values at or beyond the usual limits of such assays; details: source organism: Dengue virus 3 Martinique/1243/1999
HLA-A*68:02 [20] = assay: IEDB peptide-MHC binding, purified MHC/competitive/fluorescence; filed as Kd, often an IC50 or EC50 that approximates it; ≥ and ≤ were set here for values at or beyond the usual limits of such assays; details: source organism: Vibrio cholerae 2740-80
HLA-A*02:12 [21] = assay: as above; details: source organism: Vibrio cholerae 2740-80
HLA-A*03:01 [22] = assay: as above; details: source organism: Vibrio cholerae 2740-80
HLA-A*02:19 [23] = assay: as above; details: source organism: Vibrio cholerae 2740-80
HLA-A*11:01 = assay: IEDB peptide-MHC binding, purified MHC/competitive/fluorescence; ≥ and ≤ were set here for values at or beyond the usual limits of such assays; details: source organism: Vaccinia virus
[24] = source organism: Zaire ebolavirus
[25] = source organism: Vaccinia virus Copenhagen
[26] = source organism: Orthohantavirus sinnombreense
[27] = source organism: Human papillomavirus 16
[28] = source organism: Dengue virus 2 Jamaica/1409/1983
[29] = source organism: Dengue virus 3 Martinique/1243/1999
[30] = source organism: Reston ebolavirus - Reston (1989)
[31] = source organism: Salmonella enterica subsp. enterica serovar Typhi
[32] = source organism: Dengue virus 1 Brazil/97-11/1997
[33] = source organism: Vibrio cholerae 2740-80
[34] = source organism: Escherichia coli
[35] = source organism: Vaccinia virus
[36] = source organism: Dengue virus 1 Singapore/S275/1990

## EPVVFSTSD
HLA-B*07:02 [1]; [24]
  IC50: ≥ 144 µM

## MENLMYALL
HLA-B*40:01; source organism: Bacillus anthracis str. A0488
  Kd: 0.0284 µM

## IVFYRSGTE
HLA-A*24:02
  IC50: ≥ 6580 µM
HLA-B*07:02 [1]; [25]
  IC50: ≥ 223 µM
HLA-A*03:01 [2]; [25]
  IC50: ≥ 85.9 µM

## MFVSNRWFL
HLA-A*24:03 [3]
  Kd: 0.005 µM
HLA-A*23:01
  Kd: 0.002 µM

## TVILGVLLL
HLA-A*02:01 [4]; source organism: Homo sapiens
  IC50: 0.847 µM

## GSFRKICGF
HLA-A*68:02 [5]
  Kd: ≥ 20 µM
HLA-A*02:12 [6]
  Kd: ≥ 20 µM
HLA-A*03:01 [7]
  Kd: ≥ 20 µM
HLA-A*02:16
  Kd: ≥ 20 µM
HLA-A*02:19 [8]
  Kd: ≥ 20 µM
HLA-B*15:01; [26]
  Kd: ≥ 20 µM
HLA-B*18:01; [26]
  Kd: ≥ 20 µM
HLA-B*27:03; [26]
  Kd: ≥ 20 µM
HLA-B*51:01; [26]
  Kd: ≥ 20 µM
HLA-A*26:01 [9]; [26]
  Kd: ≥ 20 µM
HLA-A*02:01 [10]; [26]
  Kd: ≥ 20 µM
HLA-B*58:01 [11]; [26]
  Kd: 0.251 µM
HLA-B*39:01; [26]
  Kd: ≥ 20 µM
HLA-A*69:01
  Kd: ≥ 20 µM
HLA-B*46:01; [26]
  Kd: ≥ 20 µM

## VLPSPACQLV
HLA-A*02:01 [4]; source organism: Homo sapiens
  IC50: 0.5 µM

## VLLLWITAA
HLA-A*02:01 [4]; [27]
  IC50: 0.011 µM

## LESAIGLPM
HLA-B*40:01; source organism: Shigella flexneri 5 str. 8401
  Kd: 0.0072 µM

## AIMEKNIML
HLA-A*02:01 [4]; source organism: Influenza A virus (A/Alaska/6/1977(H3N2))
  IC50: 0.104 µM

## ITASILLWY
HLA-A*26:01 [12]
  Kd: 0.00566 µM
HLA-A*30:02
  Kd: 0.55 µM
HLA-B*58:01 [13]; [28]
  Kd: 0.0028 µM
HLA-A*01:01 [14]
  Kd: 0.0472 µM

## ATLLVWHTW
HLA-B*58:01 [13]; [29]
  Kd: 0.00169 µM
HLA-B*57:01 [15]; [29]
  Kd: 0.0021 µM
HLA-A*32:01; [29]
  Kd: 0.00268 µM

## QSSITEAELT
HLA-B*58:01 [13]; [28]
  Kd: 0.436 µM
HLA-B*57:01 [15]; [28]
  Kd: 0.351 µM

## PSGSTSPRM
HLA-B*07:02 [1]; [24]
  IC50: ≥ 202 µM

## KTVWFVPSI
HLA-B*58:01 [13]; [28]
  Kd: 0.00432 µM
HLA-A*32:01; [28]
  Kd: 0.00669 µM

## FSDLCNFLI
HLA-A*01:01 [16]
  Kd: 0.153 µM
HLA-C*05:01; [30]
  Kd: 0.009 µM
HLA-B*15:01; [30]
  Kd: ≥ 20 µM
HLA-B*18:01; [30]
  Kd: ≥ 20 µM
HLA-B*27:03; [30]
  Kd: ≥ 20 µM
HLA-B*51:01; [30]
  Kd: ≥ 20 µM
HLA-A*26:01 [9]; [30]
  Kd: ≥ 20 µM
HLA-A*02:01 [10]; [30]
  Kd: ≥ 20 µM
HLA-B*57:01 [17]
  Kd: ≥ 20 µM
HLA-B*39:01; [30]
  Kd: ≥ 20 µM
HLA-B*46:01; [30]
  Kd: ≥ 20 µM
HLA-B*15:17
  Kd: ≥ 20 µM

## NPIVPSFDM
HLA-B*07:02 [1]; source organism: Influenza A virus (A/Oklahoma/309/2006(H3N2))
  IC50: 1.23 µM

## SLYNAIATL
HLA-A*02:01 [4]; source organism: Human immunodeficiency virus 1
  IC50: 0.036 µM

## AELFVAHYM
HLA-B*15:01; [31]
  Kd: ≥ 20 µM
HLA-B*40:01; [31]
  Kd: 0.0108 µM

## LPYPYSSSA
HLA-B*07:02 [18]; source organism: Shigella boydii CDC 3083-94
  Kd: 0.0796 µM

## LKNDLLENLQ
HLA-B*07:02 [1]; source organism: Influenza A virus (A/Victoria/1968(H3N2))
  IC50: ≥ 495 µM

## VPRYAFAM
HLA-B*07:02 [18]; source organism: Influenza A virus
  Kd: ≤ 0.001 µM

## KSWPLNEGI
HLA-B*58:01 [13]; [32]
  Kd: 0.0703 µM
HLA-A*32:01; [32]
  Kd: 0.34 µM

## HYGTEGQEF
HLA-A*24:03 [19]; source organism: Escherichia coli APEC O1
  Kd: 0.0029 µM

## TLIDVCPI
HLA-A*02:01 [4]; [27]
  IC50: 0.033 µM

## AASAAQRRGR
HLA-A*31:01
  Kd: 0.165 µM
HLA-B*58:01 [13]; [29]
  Kd: 0.0187 µM

## NLGNLNVSI
HLA-A*02:01 [4]; source organism: Hepatitis B virus subtype ayw
  IC50: 0.076 µM

## KQLPPLAAW
HLA-B*18:01; [33]
  Kd: 6.33 µM
HLA-A*68:02 [20]
  Kd: ≥ 20 µM
HLA-B*27:03; [33]
  Kd: ≥ 20 µM
HLA-B*51:01; [33]
  Kd: ≥ 20 µM
HLA-A*02:12 [21]
  Kd: ≥ 20 µM
HLA-A*26:01 [9]; [33]
  Kd: ≥ 20 µM
HLA-A*03:01 [22]
  Kd: ≥ 20 µM
HLA-A*02:19 [23]
  Kd: ≥ 20 µM
HLA-B*39:01; [33]
  Kd: ≥ 20 µM
HLA-B*46:01; [33]
  Kd: ≥ 20 µM

## MEIKILHKQ
HLA-B*40:01; source organism: Escherichia coli 536
  Kd: ≥ 20 µM

## RAMACSALI
HLA-C*05:01; [34]
  Kd: 0.347 µM
HLA-B*51:01; [34]
  Kd: 2.97 µM
HLA-A*02:01 [10]; [34]
  Kd: 0.0261 µM
HLA-B*58:01 [11]; [34]
  Kd: 0.0129 µM

## RAQDPPPEL
HLA-C*05:01; source organism: Homo sapiens
  Kd: 0.663 µM

## IPSATKRWG
HLA-B*07:02 [1]; source organism: Sudan ebolavirus
  IC50: 49.6 µM

## LLALLSCLTI
HLA-A*02:01 [4]; source organism: Hepacivirus hominis
  IC50: 0.385 µM

## LVRSETKQK
HLA-A*11:01
  IC50: 7.02 µM
HLA-B*07:02 [1]; [35]
  IC50: 34.6 µM
HLA-A*03:01 [2]; [35]
  IC50: 5.02 µM

## LSAAIGKAW
HLA-B*58:01 [13]; [36]
  Kd: 0.00292 µM
HLA-B*57:01 [15]; [36]
  Kd: 0.0019 µM

## QYVLMPGKV
HLA-A*24:03 [19]; [34]
  Kd: 2.58 µM

## VSSVNMISRM
HLA-B*58:01 [13]; [28]
  Kd: 0.698 µM
HLA-B*57:01 [15]; [28]
  Kd: 0.626 µM

## NASDRMGMGV
HLA-B*58:01 [13]; [29]
  Kd: 0.209 µM
HLA-B*57:01 [15]; [29]
  Kd: 0.722 µM
